Patent US20250197503A1, “ANTI-HUMAN PD-Ll AND TLR7 DOUBLE-TARGETING NANOBODY CONJUGATE DRUG AND USE THEREOF IN RESISTING TUMOR” (SHANGHAI INSTITUTE OF MATERIA MEDICA , CHINESE ACADEMY OF …, priority 2022, published 2025)

Key:
[1] = target: T1, PD-L1 (Homo sapiens, UniProt Q9NZQ7); assay: Binding of candidate nanobodies to human PD-L1 on HEK293T/hPD-L1 cells, flow cytometry; parameters: expressed in transfected cells; host or cells: HEK293T; conditions: nanobody 10 μg/ml, FIG. 1
Experimental: The stably transfected cell line HEK293T/hPD-L1 was digested and centrifuged, and the supernatant was removed. The cells were washed once with PBS and the cell density was adjusted to 2.5×10^6 cells/mL. 100 μL of cell suspension was added to each cell sample, i.e., 2.5×10^5 cells/sample. Different anti-human PD-L1 candidate nanobodies (at a concentration of 10 μg/ml) were added into the samples. The samples were incubated in a 4° C. refrigerator for 20 min and then centrifuged to remove the supernatant, and washed once with PBS. The diluted antibody anti-human IgG Fc (FITC) was used as a secondary antibody to resuspend the above cells. The abtained samples were incubated in a 4° C. refrigerator for 20 min and centrifuged to remove the supernatant. The cells were washed twice with PBS, transferred to a flow tube; and detected on a flow cytometer to obtain the binding activity of the candidate nanobody with human PD-L1, as shown in FIG. 1.

[2] = target: T2, human PD-1/PD-L1 (Homo sapiens, UniProt Q9NZQ7); assay: Blocking of human PD-1/PD-L1 binding on HEK293T/hPD-L1 cells, single concentration, flow cytometry; conditions: nanobody 10 μg/ml, human PD-1-his 1 μg/mL, FIG. 2
T2 construct: expressed in transfected cells; host or cells: HEK293T
Experimental: The stably transfected cell line HEK293T/hPD-L1 was digested and centrifuged to remove the supernatant. The cells were washed once with PBS and the cell density was adjusted to 2.5×10^6 cells/mL. 100 μL of cell suspension was added to each cell sample, i.e., 2.5×10^5 cells/sample. The human PD-1-his protein (at a concentration of 1 μg/mL) and candidate anti-human PD-L1 nanobodies (at a concentration of 10 μg/ml) were added to the samples respectively. The abtained samples were incubated in a refrigerator at 4° C. for 20 min and centrifuged to remove the supernatant. The obtained samples were washed once with PBS. The diluted antibody anti-his-APC was used as the secondary antibody to resuspend the above cells. The cells were incubated in a refrigerator at 4° C. for 20 min and centrifuged to remove the supernatant. The cells were washed twice with PBS, transferred to a flow tube; and detected by flow cytometry.

[3] = target: T2, human PD-1/PD-L1; assay: IC50 of blocking human PD-1/PD-L1 binding on HEK293T/hPD-L1 cells, flow cytometry; conditions: FIG. 3; for IC50 activity in blocking human PD-1/PD-L1 binding, compared with KN035: human PD-1-his 1 μg/mL
Experimental: The cell samples were prepared by digesting the stably transfected cell line HEK293T/hPD-L1. Different concentrations of nanobodies h_Nb1 or h_Nb2 or positive control antibody KN035 (sequence from the IMGT database) and human PD-1-his protein (concentration of 1 μg/mL) were added to the samples. After incubation and centrifugation, anti-his-APC was used as the secondary antibody for incubation and staining; and then the flow cytometer was used for detection to obtain the IC50 value of the candidate nanobody in blocking the binding of human PD-1/PD-L1, as shown in FIG. 3.

[4] = system: CT26/hPD-L1 tumor; assay: In vivo anti-tumor activity in CT26/hPD-L1 tumor model; parameters: species or system BALB/c mice with dual humanization of PD-1/PD-L1; conditions: 10 mg/kg intraperitoneal, 6 administrations D0-D16, tumors dissected on Day 17
Experimental: To further evaluate the in vivo anti-tumor activity of anti-human PD-L1 and TLR7 dual-targeting nanobody conjugates, the CT26/hPD-L1 tumor model established by using BALB/c mice with dual humanization of PD-1/PD-L1 targets was used. When the average tumor volume reached 80-100 mm^3, the mice were randomly divided into 6 groups according to the tumor volume, with 6 mice in each group; the day of grouping was defined as DO, and the drugs were administered on DO, D3, D7, D10, D13, and D16, for a total of 6 times, with a dose of 10 mg/kg by intraperitoneal administration. The tumor size was measured 2-3 times a week, and the tumor growth curve was plotted.

[5] = target: T1, PD-L1; assay: Affinity of affinity-matured nanobodies to PD-L1 compared with the original antibodies; assay type: binding; conditions: relative to original antibody (h_Nb1 VHH or h_Nb2 VHH)
Description: The full-length amino acid sequences of preferred nanobodies that specifically bind to human PD-L1 in the above examples (SEQ ID No. 1 and SEQ ID No. 5) were annotated with the CCG method for the antibody CDR and FR regions. Suitable FR and CDR region templates were selected by antibody homology modeling to construct and select the optimal nanobody three-dimensional protein structure. The crystal structure of human PD-L1 protein was obtained from the PDB protein database. A preferred candidate library of PD-L1 nanobody-PD-L1 protein complex structures was obtained by protein complex homology modeling and protein-protein molecular docking methods. Based on the PD-1/PD-L1 in vitro competitive binding characteristics of the preferred antibodies, a suitable docking angle was selected to determine the optimal docking conformation. The key interaction sites of the selected nanobody-PD-L1 protein complex structure were analyzed, with attention paid to Van Der Waals forces, hydrogen bonds, ionic bonds, hydrophobic interactions, etc. The pairs of action sites with low affinity energy values between the nanobodies and the action sites on PD-L1 were focused on as affinity maturation point mutation objects. […] Finally, the affinity maturation scheme of the CDR regions of the preferred antibodies was determined, and the sequences of the antibodies after affinity maturation were SEQ ID NO. […]

T1 sequence (Q9NZQ7 19-290): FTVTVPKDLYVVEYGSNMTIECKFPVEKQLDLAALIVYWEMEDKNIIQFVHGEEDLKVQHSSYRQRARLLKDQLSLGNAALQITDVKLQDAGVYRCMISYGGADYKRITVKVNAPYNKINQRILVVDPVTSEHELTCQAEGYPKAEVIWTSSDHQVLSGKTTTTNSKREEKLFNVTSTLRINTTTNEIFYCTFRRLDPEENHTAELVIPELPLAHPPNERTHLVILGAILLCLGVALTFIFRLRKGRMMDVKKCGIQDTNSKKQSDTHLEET
T2 sequence (Q9NZQ7 19-290): as above

| Molecule | binding activity to human PD-L1 [1] | also measured |
| --- | --- | --- |
| h_Nb1: anti-human PD-L1 nanobody, VHH SEQ ID NO: 1 (protein, h_Nb1 VHH) VHH: DVQLQESGGGLVQPGGSLRLSCAASGFTFSSYAMSWVRQAPGKGLEWVSDINSGGDNTDYADSVKGRFTISRDNAKNTLYLQMNSLKPEDTAVYYCARGPKLCFSSWGQGTQVTVSS | good binding activity | activity in blocking human PD-1/PD-L1 binding [2]: effectively block; IC50 activity in blocking human PD-1/PD-L1 binding, compared with KN035 [3]: comparable to those of the positive control antibody KN035; tumor inhibition rate [4]: 81.17% |
| h_Nb2: anti-human PD-L1 nanobody, VHH SEQ ID NO: 5 (protein, h_Nb2 VHH) VHH: DVQLQESGGGLVQPGGSLRLSCAASGFTFGDRWMYWLRQAPGKGLEWVSSINPAGRSTYYADSVKGRFTISRDNAKNTLYLQMNSLKSEDTAVYYCTKDPGGYQKGQGTQVTVSS | good binding activity | activity in blocking human PD-1/PD-L1 binding [2]: effectively block; in vitro activity compared with KN035 ([3]; PD-1/PD-L1 blocking): superior to that of KNO35; IC50 activity in blocking human PD-1/PD-L1 binding, compared with KN035 [3]: comparable to those of the positive control antibody KN035; tumor inhibition rate [4]: 85.14% |
| h_Nb2_G101Y: affinity-matured VHH of h_Nb2, SEQ ID NO: 92 (protein, h_Nb2_G101Y VHH) VHH: DVQLQESGGGLVQPGGSLRLSCAASGFTFGDRWMYWLRQAPGKGLEWVSSINPAGRSTYYADSVKGRFTISRDNAKNTLYLQMNSLKSEDTAVYYCTKDPGYYQKGQGTQVTVSS |  | Improved value of relative affinity [5]: 8.4837 |
| KN035: positive control antibody (sequence from the IMGT database) (antibody, chains of the INN, looked up, V domains shown) VH: QVQLVESGGGLVQPGGSLRLSCAASGKMSSRRCMAWFRQAPGKERERVAKLLTTSGSTYLADSVKGRFTISRDNSKNTVYLQMNSLRAEDTAVYYCAADSFEDPTCTLVTSSGAFQYWGQGTLVTVSS |  | tumor inhibition rate [4]: 65.83% |
| h_Nb4: anti-human PD-L1 nanobody, VHH SEQ ID NO: 9 (protein, h_Nb4 VHH) VHH: DVQLQESGGGLVQAGGSLRLSCAAPSRMFSGYTMGWYRQAPGKQRELVAQIANGGFTDYIDSVKGRFSISRDTVLNMMYLQMNSLKPEDTAVYYCNLVLVNGIPTRNWGQGTQVTVSS | good binding activity |  |

Further lines, with some results ahead:

| binding activity to human PD-L1 [1] | Molecule | also measured |
| --- | --- | --- |
| good binding activity | h_Nb9: anti-human PD-L1 nanobody, VHH SEQ ID NO: 20 (protein, h_Nb9 VHH) VHH: DVQLQESGGGLVQPGGSLRLSCASSGSIFGLGVKGWYRQPPGNQREMVAQIISGGRISYADSVKGRFTISRDNAKNTVYLQMNSLKPEDTAVYYCNAWGPGQRNYWGRGTQVTVSS |  |
| good binding activity | h_Nb12: anti-human PD-L1 nanobody, VHH SEQ ID NO: 24 (protein, h_Nb12 VHH) VHH: DVQLQESGGGLVQAGGSLRLSCAASGRTFSSRAMGWFRQAPGKEREFVAAISGSGRNTYYADSVKGRFTISRDNAKNSVNLQMNSLKPEDTAVYYCNAAGGGITIATMTQRTQYDYWGQGTQVTVSS |  |
| good binding activity | h_Nb13: anti-human PD-L1 nanobody, VHH SEQ ID NO: 28 (protein, h_Nb13 VHH) VHH: DVQLQESGGGLVQPGGSLRLSCAASGSIFSINAMGWYRQAPGKSRELVAAITSGGSTNYADSVKGRFTISRDTAKNTVYLLMNSLEPEDTAVYYCNVERRRPPHYLSEYDFDWGQGTQVTVSS |  |
| good binding activity | h_Nb26: anti-human PD-L1 nanobody, VHH SEQ ID NO: 36 (protein, h_Nb26 VHH) VHH: DVQLQESGGGLVQPGGSLRLSCAAPGSIFRINAMGWYRQAPGKQRELVAAITSGGSTNYADSVQGRFTISRDNAKNTVYLQMNSLKPEDTAVYYCNVERRRPPHYYSDYDFDWGQGTQVTVSS |  |
| good binding activity | h_Nb5: anti-human PD-L1 nanobody, VHH SEQ ID NO: 13 (protein, h_Nb5 VHH) VHH: DVQLQESGGGAVQSGESLRLSCAASGRDLMFYDVAWFRQAPGKEREGVSYIRSSGTLTKYADSVKGRFTISRDNDKNTVSLQMNSLNPEDTAKYYCAARLQSATSHSDLREDEFNSWGQGTQVTVSS |  |
| good binding activity | h_Nb6: anti-human PD-L1 nanobody, VHH SEQ ID NO: 17 (protein, h_Nb6 VHH) VHH: DVQLQESGGGLAQPGGSLRLSCAASGFTFSSYAMSWARQAPGKGLEWVAGIYRGGSDTYYADSVKGRFTISRDNTKNTLYLQMNSLKPEDTALYYCIQGWGLGYANYDYWGQGTQVTVSS |  |
